The target of this assay is mouse serum proteins (serum protein binding assay) (mouse). The assay is described as follows: ultrafiltration of serum.

B1: 800-G-Abz4-t-BBN (peptide)
peptide: GQWAVGHLM
modifications: IRDye800 (800CW) on the N-terminus; 4-aminobenzoyl (Abz4) between the linker G and Q; C-terminal amide
B1: the percent serum protein bound is more than 90%.

The values above are taken from paper PMC5867903.
